Test results from patent US20250188194A1, “Method of treatment” (Nucleus Therapeutics Pty Ltd, priority 2021, published 2025).
Entries after “also recorded” stand apart in the source; their conditions may differ.

Tests used:
mouse neutrophils = test: Mouse neutrophils NETosis visualization (MPO, H3Cit, PAD4 immunostaining); assay type: cell-based; conditions: 10 μM DX1 30 minutes, N=4
Experimental: (§1) Neutrophils obtained from thioglycollate-treated mice and directly plated onto 20-well plates were treated with control media or media containing 10 μM DX1 for 30 minutes, and then observed for four hours, after which cells were fixed and immunostained for markers of NETs including myeloperoxidase (MPO), H3Cit, and peptidylarginine deiminase 4 (PAD4). The percentage of NETs released per 100 cells was determined by visualization on confocal microscopy and analyzed by ImageJ (NIH).
as §1, with “stimulated with PMA for induction of NOX-dependent NETosis” for “observed”, “MPO,” for “myeloperoxidase (MPO),”, “PAD4.” for “peptidylarginine deiminase 4 (PAD4).”, “confocal fluorescence” for “confocal”, “(NIH). […]” for “(NIH).”
as §1, with “stimulated with a calcium ionophore (ionomycin, IM) for induction of NOX-independent NETosis” for “observed”, “MPO,” for “myeloperoxidase (MPO),”, “PAD4.” for “peptidylarginine deiminase 4 (PAD4).”, “confocal fluorescence” for “confocal”
All mouse work was conducted under a protocol approved by Monash University's Animal Ethics Committee. […] Cells were fixed in periodate-lysine-paraformaldehyde (PLP) overnight, immunostained for markers of NETs including myeloperoxidase (MPO, #AF3667 R&D Systems, MN, USA), H3Cit, and PAD4 (#AB128086, abcam), mounted in DAPI ProLong™ Gold (Molecular Probes, Thermo Fisher Scientific) and NETs were visualized by confocal fluorescence microscopy with a Nikon Ti-E inverted microscope (Nikon Instruments Inc, Melville, NY, USA). […]

MPO immunized mice = test: Mouse model of ANCA associated vasculitis; assay type: in vivo; conditions: one or two doses of DX1 at 25 mg/kg, assessed day 20, versus MPO immunized control
Experimental: FIG. 9. Graphic depiction of an experiment testing the impact of DX1 in a 20-day mouse model of ANCA vasculitis.
FIGS. 10A-10D. […] Mice were treated as depicted in FIG. 9. Glomerular segmental necrosis, macrophages, neutrophils, and CD4+ T-cells was evaluated in control and MPO-immunized mice that subsequently were treated with or without one or two doses of DX1.
Mice receiving two doses of DX1 received their second dose at day 18. Mice were culled for assessment at day 20.
Mice were separated into 4 groups: Ova control (n=4); MPO immunized no treatment with DX1 (n=8); MPO immunized and 1 dose of DX1 at 25 mg/kg (n=8) and; MPO immunized and 2 doses of DX1 at 25 mg/kg.

B1: DX1: 3E10 derivative, a di-scFv having the sequence SEQ ID NO: 38; nuclear-penetrating anti-DNA binding protein (protein)
scFv: DIQMTQSPSSLSASLGDRATITCRASKTVSTSSYSYMHWYQQKPGQPPKLLIKYASYLESGVPSRFSGSGSGTDFTLTISSLQPEDAATYYCQHSREFPWTFGGGTKVEIKTVDAAPGGGGSGGGGSGGGGSEVQLVESGGGLVQPGGSLRLSCAASGFTFSNYGMHWVRQAPGKGLEWVSYISSGSSTIYYADSVKGRFTISRDNAKNSLYLQMNSLRAEDTAVYYCARRGLLLDYWGQGTTVTVSSASTKGPSVFPLAPLESTGSDIQMTQSPSSLSASLGDRATITCRASKTVSTSSYSYMHWYQQKPGQPPKLLIKYASYLESGVPSRFSGSGSGTDFTLTISSLQPEDAATYYCQHSREFPWTFGGGTKVEIKTVDAAPGGGGSGGGGSGGGGSEVQLVESGGGLVQPGGSLRLSCAASGFTFSNYGMHWVRQAPGKGLEWVSYISSGSSTIYYADSVKGRFTISRDNAKNSLYLQMNSLRAEDTAVYYCARRGLLLDYWGQGTTVTVSS
modifications: DX1 sequence
- percentage of NETs, unstimulated neutrophils (mouse neutrophils; no stimulus, four hours, control 3.5%±1.0): 4.0%±1.5
- percentage of NETs, ionomycin (IM) stimulation (NOX-independent NETosis) (mouse neutrophils; then IM 4 μM four hours, control 15.5%±3.1): 2.3%±0.8
- percentage of NETs, PMA stimulation (NOX-dependent NETosis) (mouse neutrophils; then PMA four hours, control 36.3%±11.1): 8.3%±2.7
- glomerular segmental necrosis, macrophages, neutrophils and CD4+ T-cells (glomerular inflammation and pathology) (MPO immunized mice): significantly reduced glomerular inflammation and pathology; also recorded: significantly reduced amounts of all of the signs of glomerular inflammation
